Data from the supplement of paper PMC10065799, “High-throughput profiling of sequence recognition by tyrosine kinases and SH2 domains using bacterial peptide display” (eLife, 2023).

Assays:
SHP2-C SH2 = assay: SH2 binding enrichment of the phosphorylated peptide, bacterial display (enrichment ratio); higher = better substrate or ligand; peptides without Tyr show the background
c-Src SH2 = assay: as above
Grb2 SH2 = Grb2 SH2 (UniProt P62993); assay: as above
MERTK = MERTK (UniProt Q12866); assay: phosphorylation enrichment, bacterial display (enrichment ratio); higher = better substrate or ligand; peptides without Tyr show the background
Fyn = Fyn (UniProt P06241); assay: as above
Jak2 = Jak2 (UniProt O60674); assay: as above
c-Src = assay: as above
FGFR3 = FGFR3 (UniProt P22607); assay: as above
EPHB1 = EPHB1 (UniProt P54762); assay: as above
EPHB2 = EPHB2 (UniProt P29323); assay: as above
AncSZ = assay: as above
c-Abl (mouse) = assay: as above
Fer (mouse) = assay: as above
Hck = Hck (UniProt P08631); assay: as above
Fes = Fes (UniProt P07332); assay: as above
FGFR1 = FGFR1 (UniProt P11362); assay: as above
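For SH2 binding enrichment of the phosphorylated peptide, bacterial display in this document: peptide library displayed on the E. coli surface as eCPX fusions, selected cells deep-sequenced, score is each peptide's frequency after selection divided by its frequency in the input.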
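For phosphorylation enrichment, bacterial display in this document: 11-residue human phosphosite peptides and single-mutation variants displayed on the E. coli surface, counted by deep sequencing, each peptide's frequency after selection divided by its frequency in the unselected input library; frequency after pTyr selection over input frequency; kinase dosed for 20-30% of maximal phosphorylation in three min.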

Chain of Jak2 (O60674 whole entry, looked up): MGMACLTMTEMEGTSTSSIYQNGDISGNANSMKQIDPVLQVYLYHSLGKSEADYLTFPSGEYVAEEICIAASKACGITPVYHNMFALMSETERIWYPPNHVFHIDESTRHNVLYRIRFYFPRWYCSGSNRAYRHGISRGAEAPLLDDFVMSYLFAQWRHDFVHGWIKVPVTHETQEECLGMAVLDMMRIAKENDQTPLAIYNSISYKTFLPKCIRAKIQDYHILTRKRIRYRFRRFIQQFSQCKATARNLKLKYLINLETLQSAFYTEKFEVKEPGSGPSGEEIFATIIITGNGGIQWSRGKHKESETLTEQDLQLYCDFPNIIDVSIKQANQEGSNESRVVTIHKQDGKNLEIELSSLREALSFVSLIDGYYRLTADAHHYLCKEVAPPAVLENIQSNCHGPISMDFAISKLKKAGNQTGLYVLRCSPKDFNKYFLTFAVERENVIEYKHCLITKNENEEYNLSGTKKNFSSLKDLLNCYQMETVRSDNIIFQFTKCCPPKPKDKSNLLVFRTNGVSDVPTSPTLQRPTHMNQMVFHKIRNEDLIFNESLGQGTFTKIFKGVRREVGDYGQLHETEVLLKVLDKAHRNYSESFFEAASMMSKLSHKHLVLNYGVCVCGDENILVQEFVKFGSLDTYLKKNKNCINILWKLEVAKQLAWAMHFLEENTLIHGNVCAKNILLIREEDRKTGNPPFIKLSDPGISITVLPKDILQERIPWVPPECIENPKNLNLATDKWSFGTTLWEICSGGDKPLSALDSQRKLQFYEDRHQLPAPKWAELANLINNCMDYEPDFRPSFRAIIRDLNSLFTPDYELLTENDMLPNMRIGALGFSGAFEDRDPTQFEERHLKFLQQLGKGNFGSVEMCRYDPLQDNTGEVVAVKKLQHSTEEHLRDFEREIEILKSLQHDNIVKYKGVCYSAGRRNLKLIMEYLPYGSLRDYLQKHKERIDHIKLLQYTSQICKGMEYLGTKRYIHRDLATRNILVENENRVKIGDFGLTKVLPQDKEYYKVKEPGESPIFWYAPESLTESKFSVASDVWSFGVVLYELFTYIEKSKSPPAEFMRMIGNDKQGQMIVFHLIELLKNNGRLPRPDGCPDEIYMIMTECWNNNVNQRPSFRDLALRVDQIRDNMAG
Chain of Fes (P07332 whole entry, looked up): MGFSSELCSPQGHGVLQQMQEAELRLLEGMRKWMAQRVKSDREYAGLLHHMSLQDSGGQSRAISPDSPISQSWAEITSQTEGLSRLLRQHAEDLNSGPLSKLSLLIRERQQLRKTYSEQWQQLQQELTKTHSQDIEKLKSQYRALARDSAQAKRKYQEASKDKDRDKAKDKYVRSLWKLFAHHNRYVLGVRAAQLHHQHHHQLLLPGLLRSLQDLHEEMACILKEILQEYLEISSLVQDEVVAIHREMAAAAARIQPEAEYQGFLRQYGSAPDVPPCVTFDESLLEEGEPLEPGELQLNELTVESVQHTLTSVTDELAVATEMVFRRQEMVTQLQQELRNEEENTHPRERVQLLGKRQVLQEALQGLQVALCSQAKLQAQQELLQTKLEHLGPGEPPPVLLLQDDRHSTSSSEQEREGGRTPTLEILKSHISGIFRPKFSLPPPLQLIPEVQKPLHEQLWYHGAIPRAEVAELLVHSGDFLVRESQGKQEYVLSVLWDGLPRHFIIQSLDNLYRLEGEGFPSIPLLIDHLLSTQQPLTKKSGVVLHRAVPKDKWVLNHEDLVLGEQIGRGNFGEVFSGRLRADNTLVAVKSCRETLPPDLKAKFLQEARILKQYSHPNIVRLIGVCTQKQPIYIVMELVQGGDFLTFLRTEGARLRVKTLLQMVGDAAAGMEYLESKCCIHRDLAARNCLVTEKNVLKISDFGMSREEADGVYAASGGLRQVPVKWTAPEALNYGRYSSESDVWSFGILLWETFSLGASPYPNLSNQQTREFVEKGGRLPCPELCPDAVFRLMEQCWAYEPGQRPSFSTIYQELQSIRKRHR
Chain of FGFR3 (P22607 whole entry, looked up): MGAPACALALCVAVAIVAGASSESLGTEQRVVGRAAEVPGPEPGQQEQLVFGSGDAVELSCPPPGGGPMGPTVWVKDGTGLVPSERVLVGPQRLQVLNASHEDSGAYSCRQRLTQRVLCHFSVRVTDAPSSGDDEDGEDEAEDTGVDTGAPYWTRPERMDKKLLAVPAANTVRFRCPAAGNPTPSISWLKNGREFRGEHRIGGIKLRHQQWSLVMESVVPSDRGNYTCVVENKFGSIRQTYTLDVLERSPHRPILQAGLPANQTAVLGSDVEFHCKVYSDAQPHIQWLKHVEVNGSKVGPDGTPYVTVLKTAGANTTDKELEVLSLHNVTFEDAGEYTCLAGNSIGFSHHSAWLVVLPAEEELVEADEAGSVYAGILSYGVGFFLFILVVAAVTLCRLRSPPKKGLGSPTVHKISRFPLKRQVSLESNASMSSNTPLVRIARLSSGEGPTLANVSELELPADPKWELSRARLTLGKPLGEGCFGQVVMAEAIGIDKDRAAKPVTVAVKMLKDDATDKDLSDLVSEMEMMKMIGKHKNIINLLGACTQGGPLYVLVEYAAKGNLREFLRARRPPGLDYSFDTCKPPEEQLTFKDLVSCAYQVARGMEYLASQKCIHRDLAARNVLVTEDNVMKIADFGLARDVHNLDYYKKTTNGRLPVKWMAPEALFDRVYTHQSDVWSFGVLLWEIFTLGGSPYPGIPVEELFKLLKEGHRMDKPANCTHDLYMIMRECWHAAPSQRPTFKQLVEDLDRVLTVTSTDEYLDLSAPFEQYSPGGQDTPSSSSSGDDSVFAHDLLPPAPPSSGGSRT
Chain of Fyn (P06241 whole entry, looked up): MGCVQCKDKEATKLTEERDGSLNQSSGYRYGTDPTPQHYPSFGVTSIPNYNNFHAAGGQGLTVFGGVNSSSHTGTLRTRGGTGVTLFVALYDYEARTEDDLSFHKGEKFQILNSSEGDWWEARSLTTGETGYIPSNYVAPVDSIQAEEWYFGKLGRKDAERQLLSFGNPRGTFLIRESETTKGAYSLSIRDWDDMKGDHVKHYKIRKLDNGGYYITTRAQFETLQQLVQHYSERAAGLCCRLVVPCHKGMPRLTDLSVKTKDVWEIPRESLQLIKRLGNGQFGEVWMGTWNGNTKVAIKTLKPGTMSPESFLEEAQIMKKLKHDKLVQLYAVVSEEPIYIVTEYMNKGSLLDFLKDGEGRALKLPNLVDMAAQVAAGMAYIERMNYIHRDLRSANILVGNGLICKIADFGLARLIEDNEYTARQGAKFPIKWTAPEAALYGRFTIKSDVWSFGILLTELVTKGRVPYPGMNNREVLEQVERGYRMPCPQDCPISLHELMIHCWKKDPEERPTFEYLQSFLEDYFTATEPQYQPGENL
Chain of Grb2 SH2 (P62993 whole entry, looked up): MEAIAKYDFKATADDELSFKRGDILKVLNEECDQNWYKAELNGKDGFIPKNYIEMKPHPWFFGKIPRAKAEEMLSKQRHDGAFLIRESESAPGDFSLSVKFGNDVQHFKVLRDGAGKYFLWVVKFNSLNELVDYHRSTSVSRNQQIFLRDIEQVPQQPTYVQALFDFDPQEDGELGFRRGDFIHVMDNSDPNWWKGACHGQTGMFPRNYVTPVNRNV
Chain of MERTK (Q12866 whole entry, looked up): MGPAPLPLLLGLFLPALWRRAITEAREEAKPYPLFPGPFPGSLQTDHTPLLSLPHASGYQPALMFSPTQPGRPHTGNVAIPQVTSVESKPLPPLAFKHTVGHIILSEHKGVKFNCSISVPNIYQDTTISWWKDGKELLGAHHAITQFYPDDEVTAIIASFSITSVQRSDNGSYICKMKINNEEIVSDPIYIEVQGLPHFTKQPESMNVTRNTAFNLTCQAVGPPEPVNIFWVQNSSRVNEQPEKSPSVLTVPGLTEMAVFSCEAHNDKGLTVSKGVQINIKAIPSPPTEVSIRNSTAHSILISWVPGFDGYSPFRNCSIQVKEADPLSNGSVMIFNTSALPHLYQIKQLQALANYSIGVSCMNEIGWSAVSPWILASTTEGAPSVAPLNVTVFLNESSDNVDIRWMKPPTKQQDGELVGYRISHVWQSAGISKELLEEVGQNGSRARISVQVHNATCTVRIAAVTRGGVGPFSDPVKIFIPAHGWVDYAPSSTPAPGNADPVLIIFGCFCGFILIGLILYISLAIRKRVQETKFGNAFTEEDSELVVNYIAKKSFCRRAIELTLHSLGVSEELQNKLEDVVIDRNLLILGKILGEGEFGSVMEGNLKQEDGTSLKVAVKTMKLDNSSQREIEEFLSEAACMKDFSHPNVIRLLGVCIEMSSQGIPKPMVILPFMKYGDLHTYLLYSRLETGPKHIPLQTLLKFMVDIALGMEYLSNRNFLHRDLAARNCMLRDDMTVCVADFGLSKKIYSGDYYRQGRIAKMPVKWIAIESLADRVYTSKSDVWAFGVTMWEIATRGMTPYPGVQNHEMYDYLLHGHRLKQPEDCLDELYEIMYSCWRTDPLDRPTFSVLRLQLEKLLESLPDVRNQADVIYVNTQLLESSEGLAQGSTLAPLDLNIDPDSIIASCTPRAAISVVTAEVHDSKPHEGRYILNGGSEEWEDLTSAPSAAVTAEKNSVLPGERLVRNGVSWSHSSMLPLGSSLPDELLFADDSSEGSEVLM
Chain of Hck (P08631 whole entry, looked up): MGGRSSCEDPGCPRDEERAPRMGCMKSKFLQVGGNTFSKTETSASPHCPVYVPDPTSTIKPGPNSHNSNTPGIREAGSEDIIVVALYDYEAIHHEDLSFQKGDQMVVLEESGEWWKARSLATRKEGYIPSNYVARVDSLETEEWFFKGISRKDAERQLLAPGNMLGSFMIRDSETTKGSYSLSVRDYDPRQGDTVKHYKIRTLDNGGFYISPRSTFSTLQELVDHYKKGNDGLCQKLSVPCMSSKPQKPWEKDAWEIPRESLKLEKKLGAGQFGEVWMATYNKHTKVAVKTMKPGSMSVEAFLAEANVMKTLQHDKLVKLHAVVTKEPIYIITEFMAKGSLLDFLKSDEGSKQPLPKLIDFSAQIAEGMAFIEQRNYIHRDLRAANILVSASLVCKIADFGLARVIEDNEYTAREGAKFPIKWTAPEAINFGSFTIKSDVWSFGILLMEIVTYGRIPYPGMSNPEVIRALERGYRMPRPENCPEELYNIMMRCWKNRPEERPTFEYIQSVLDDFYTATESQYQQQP

Sequence | SH2 binding enrichment (SHP2-C SH2) | SH2 binding enrichment (c-Src SH2) | SH2 binding enrichment (Grb2 SH2) | phosphorylation enrichment (MERTK) | phosphorylation enrichment (Fyn) | phosphorylation enrichment (Jak2) | phosphorylation enrichment (c-Src) | phosphorylation enrichment (FGFR3) | phosphorylation enrichment (EPHB1) | phosphorylation enrichment (EPHB2) | phosphorylation enrichment (AncSZ) | phosphorylation enrichment (c-Abl (mouse)) | phosphorylation enrichment (Fer (mouse)) | phosphorylation enrichment (Hck) | phosphorylation enrichment (Fes) | phosphorylation enrichment (FGFR1)
RIAFQYGVTDL [MYBPC3_Y340] | 0.815 | 0.535 | 0.93 | 0.514 | 0.522 | 1.47 | 0.879 | 1.08 | 0.709 | 0.627 | 1.41 | 0.992 | 0.558 | 0.647 | 1.28 | 0.45
RIDPDYMGRVR [IGSF9_Y81_V82M] | 0.629 | 0.577 | 1.03 | 0.442 | 0.487 | 0.643 | 0.466 | 0.656 | 0.35 | 0.367 | 0.649 | 0.585 | 0.4 | 0.369 | 0.572 | 0.344
RIFDFYSARKT [STOX1_Y858_A863T_YF] | 0.907 | 0.517 | 0.977 | 0.595 | 0.485 | 0.417 | 0.624 | 0.496 | 0.467 | 0.553 | 0.715 | 0.491 | 0.311 | 1.37 | 0.833 | 0.519
RIFDYYSARKA [STOX1_Y858] | 0.648 | 0.469 | 1.48 | 0.582 | 0.713 | 1.16 | 1.1 | 0.612 | 0.499 | 0.656 | 0.959 | 1.08 | 0.7 | 0.792 | 1.28 | 0.614
RKGGSYSQAAS [HLA-A_Y344_T345S] | 0.836 | 0.542 | 0.95 | 0.656 | 0.537 | 0.401 | 0.741 | 0.567 | 0.498 | 0.491 | 0.599 | 0.738 | 0.294 | 0.38 | 0.625 | 0.523
RKPDIYERLAS [MCM4_Y459] | 0.71 | 0.643 | 0.734 | 1.65 | 0.99 | 0.702 | 2.04 | 0.798 | 0.927 | 0.903 | 0.846 | 0.901 | 0.943 | 4.52 | 1.2 | 0.671
RLEGVYGNNID [PTEN_Y46_R47G] | 0.444 | 0.408 | 0.713 | 0.657 | 1.57 | 0.557 | 1.26 | 0.381 | 0.452 | 0.311 | 0.404 | 0.384 | 0.621 | 0.94 | 0.603 | 0.485
RLGLQYSQGLV [EIF2B4_Y214] | 0.553 | 0.452 | 0.955 | 0.365 | 0.732 | 1.19 | 0.683 | 0.851 | 0.676 | 0.725 | 0.876 | 1.16 | 0.654 | 0.588 | 1.31 | 0.853
RLLVVYPWTKR [HBB_Y36_Q40K] | 0.812 | 0.447 | 0.951 | 0.612 | 0.485 | 0.475 | 0.583 | 0.613 | 0.418 | 0.678 | 0.735 | 0.602 | 0.45 | 0.547 | 0.829 | 0.694
RLLVVYRWTQR [HBB_Y36_P37R] | 0.799 | 0.493 | 0.663 | 0.463 | 0.639 | 0.926 | 0.402 | 0.761 | 0.372 | 0.787 | 1.56 | 0.601 | 0.711 | 0.567 | 1.25 | 0.652
RLNWIYYKDQT [RS1_Y165] | 0.801 | 0.735 | 1.11 | 0.672 | 0.687 | 1.78 | 0.616 | 0.98 | 0.985 | 0.712 | 1.53 | 0.676 | 0.844 | 0.947 | 2.66 | 0.643
RLPSGYGLAYR [DLK1_Y262] | 0.954 | 0.844 | 0.855 | 0.385 | 0.295 | 0.46 | 0.39 | 0.479 | 0.464 | 0.315 | 0.627 | 0.414 | 0.418 | 0.555 | 0.61 | 1.32
RLSVDYSKKSK [TUBA3E_Y161] | 0.526 | 0.387 | 0.894 | 0.461 | 0.247 | 0.408 | 0.36 | 0.34 | 1.09 | 0.389 | 0.515 | 0.433 | 0.35 | 0.442 | 0.553 | 0.373
RPFFLYVAFHN [SGSH_Y174_D179N] | 0.515 | 0.478 | 0.933 | 0.453 | 0.321 | 0.762 | 0.33 | 0.837 | 0.74 | 0.491 | 1.04 | 0.472 | 0.405 | 0.327 | 0.918 | 0.564
RPFSPYIIRGM [LRP5_Y1531_R1529S_YF] | 0.81 | 0.479 | 0.834 | 0.494 | 0.98 | 0.92 | 0.886 | 0.71 | 0.752 | 0.535 | 1.29 | 0.595 | 0.494 | 0.719 | 0.991 | 0.785
RPIEVYLCPEE [E2F3_Y349_G344R] | 0.809 | 0.559 | 0.918 | 0.975 | 1.06 | 3.12 | 2.55 | 1.3 | 1.49 | 0.998 | 3.41 | 1.97 | 0.938 | 1.04 | 3.24 | 1.11
